These results are taken from patent US6528630.

Test [1] deals with T1, α1B-1α2b human neuronal calcium channel subunit combination (human). Description: Bmax of 125I-ω-CgTx GVIA binding, against α1B-1 alone.
The target in test [2] is human neuronal calcium channel α1B-1 subunit alone (human). Description: saturation binding of 125I-ω-CgTx GVIA to transfected HEK293 cells.
Test [3] concerns the target T1, α1B-1α2b human neuronal calcium channel …. Described as above.

The Kd is the concentration at which binding is half-saturated. Take CKSPGSSCSPTSYNCCRSCNPYTKRCY (modifications not checked) [125I-ω-CgTx GVIA, P01522 46-72]: the fold change of binding capacity in test [1] was 3 fold. Further, in test [2], the Bmax was determined as 757 sites/cell and the Kd is 0.0317 nM. Moreover, in test [3], the Bmax was determined as 2260 sites/cell and the Kd came out at 0.0846 nM.
